The data set is described as follows: protein stability index of a GFP-peptide fusion (GPS, HEK-293T) (PSI 1-6); higher = more stable. To be noted: c terminus: native.
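Note: lentivirally expressed fusion library, cells FACS-sorted into six equal-sized GFP/DsRed ratio bins, PSI computed from sequencing read fractions per bin weighted by bin number.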

B1: SNF8 addY (peptide)
chain: LPALFTDLYSQEITAEEAREALPY
Take B1: the protein stability index (parent: NP_009172.2) amounted to 4.33.

B2: BEX2 addY (peptide)
chain: HSLRAVSTDPPHHDHHDEFCLMPY
Regarding B2, the protein stability index (parent: NP_116010.1) is 3.52.

B3: POLD2 addY (peptide)
chain: CQPISFSGFGAEDDDLGGLGLGPY
For B3, the protein stability index (parent: NP_006221.1) was determined as 2.32.

B4: PSMB5 addY (peptide)
chain: DGWIRVSSDNVADLHEKYSGSTPY
B4: the protein stability index (parent: NP_002788.1) is 3.43.

B5: TRPA1 addY (peptide)
chain: EQRNSRWNTVLRAVKAKTHHLEPY
Consider B5, for which the protein stability index (parent: NP_015628.1) amounted to 4.2.
